Test results from patent publication US11932880B2, “Enzyme and method for assaying pentosidine using same” (priority 2018, dated 2024).

Experiments:
[1] = Thermal stability of PenOX2 (residual activity after 10 minutes treatment); type: physicochemical; conditions: treated 10 minutes at respective temperatures; residual activity measured at pH 7.5, 37° C.; FIG. 9
Description: (§1) 600 μL of an arbitrary buffer, 400 μL of deionized water solution in which 3.99 U/mL peroxidase, 1.8 mM 4-aminoantipyrine and 2 mM TOOS were dissolved, and 150 μL of deionized water were incubated at an arbitrary temperature for 10 minutes. Then, 50 μL of the enzyme solution having been stored on ice and 400 μL of a solution of 4 mM pentosidine dissolved in a 100 mM potassium phosphate buffer (pH 8.0) having been incubated at an arbitrary temperature for 10 minutes were added thereto, followed by stirring and reacting at an arbitrary temperature for 3 minutes. A change over time of A555 during the reaction was measured using a spectrophotometer (U-3900, manufactured by Hitachi High-Tech Science Corporation). An elapsed time from the start of the measurement of 20 seconds to 60 seconds—A555 change was regarded as an activity value.
Residual activity obtained when the enzyme solution was treated for 10 minutes at respective temperatures was evaluated by performing the activity measurement described above by using a potassium phosphate buffer (final pH in the activity measurement: pH 7.5, final concentration of 100 mM) at 37° C.

[2] = Measurement of L-arginine oxidation activity of hypha extract; type: biochemical; conditions: intracellular recombinant PenOX2 after anion exchange and ultrafiltration concentration
Description: 200 μL of each crude enzyme solution was mixed with a 380 μL of 150 mM potassium phosphate buffer solution (pH 7.0) in which 7.1 U/mL peroxidase, 0.70 mM 4-aminoantipyrine and 0.79 mM TOOS were dissolved. The resultant mixture was incubated at 37° C. for 5 minutes, and 20 μL of a 60 mM L-arginine solution was added thereto, followed by stirring, and reacting at 37° C. for 5 minutes. A change over time of A555 during the reaction was measured using a spectrophotometer (U-3900, manufactured by Hitachi High-Tech Science Corporation). A control experiment was performed by adding 20 μL of ion-exchanged water instead of 20 μL of the 60 mM L-arginine solution. An amount of the enzyme generating 1 μmol of hydrogen peroxide per minute at 37° C. was defined as one unit (U), and the activity was calculated in accordance with the following equation: Activity (U/mL)={(ΔAs−ΔA0)×0.6×df}/(39.2×0.5×0.2) • ΔAs: change of A555 per minute of reaction solution • ΔA0: change of A555 per minute of control experiment • 39.2: millimolar absorbance coefficient (mM^−1·cm^−1) of quinoneimine pigment generated through reaction • 0.5: molar number of quinoneimine pigment generated by 1 mol of hydrogen peroxide • 0.6: volume (mL) of whole reaction solution • df: dilution factor • 0.2: volume (mL) of enzyme solution

[3] = Range of stable pH of PenOX2 (residual activity after 25° C., 20 hours); type: physicochemical
Description: as §1
Treatments were performed respectively using, as a buffer solution, a 100 mM citric acid-200 mM potassium phosphate buffer (pH 3.0 to 6.5), a 200 mM potassium phosphate buffer (pH 6.5 to 8.0) and a 200 mM glycine buffer (pH 8.0 to 10.0) at respective pH and at 25° C. for 20 hours, and then, residual activity of PenOX2 was measured.

[4] = Enzyme activity measurement with pentosidine as substrate (A555 change, U/mL); type: biochemical
Description: as §1
Besides, an amount of the enzyme generating 1 μmol of hydrogen peroxide per minute at 37° C. was defined as one unite (U), and the activity was calculated in accordance with the following equation. Activity (U/mL)={(ΔAs−ΔA0)×1.6×df}/(39.2×0.5×0.05) • ΔAs: change of A555 per minute of reaction solution • ΔA0: change of A555 per minute of control experiment • 1.6: volume (mL) of whole reaction solution • df: dilution factor • 39.2: millimolar absorbance coefficient (mM^−1-cm-1) of quinoneimine pigment generated through reaction • 0.5: molar number of quinoneimine pigment generated by 1 mol of hydrogen peroxide • 0.05: volume (mL) of enzyme solution
A 50 mM citric acid-100 mM potassium phosphate buffer (pH 4.0 to 7.5, a final concentration), a potassium phosphate buffer (pH 6.5 to 8.0, a final concentration of 100 mM), and a glycine buffer (pH 8.0 to 11.0, a final concentration of 100 mM) were prepared, and these were used to perform an enzymatic reaction at respective pH at a temperature of 37° C. […] Therefore, it was determined that the optimum pH of PenOX2 is pH 6.5 to 8.0, and that the most suitable optimum pH is pH 7.5.
A potassium phosphate buffer (pH 7.5) having a final concentration of 50 mM was used to perform the activity measurement of PenOX2 at various temperatures. The highest activity was obtained around 50° C., and a temperature range for attaining 80% or more of this highest activity was 37° C. to 50° C. Therefore, it was determined that the range of the optimum temperature of PenOX2 is 37° C. to 50° C.
The above-described activity measurement method was employed to perform activity measurement using a potassium phosphate buffer (final pH in the activity measurement: pH 7.5, final concentration of 50 mM) at 37° C., and an activity value (U/mL) was obtained by using the aforementioned equation.
As described above, both PenOX1 and PenOX2 had the pentosidine oxidase activity. […] Subsequently, the following three enzymes were purchased, and the above-described activity measurement method was employed for confirming their pentosidine oxidase activity using a potassium phosphate buffer (pH 7.5, final concentration of 100 mM) at 37° C. The amino acid sequence homologies with PenOX1 and PenOX2 and the pentosidine oxidase activities of these enzymes were as follows.

[5] = Pentosidine quantitative test (DA-67/peroxidase, A658, Bio Majesty JCA-BM1650); type: biochemical; conditions: 0.2-4.0 μM pentosidine solutions, 37° C., 5 minutes; ΔA658 correlated with final pentosidine concentration (FIG. 4)
Description: The following reagents were prepared to measure pentosidine by using Bio Majesty JCA-BM1650 (manufactured by JEOL Ltd.).
0.2 μM, 0.4 μM, 0.6 μM, 1.0 μM, 2.0 μM or 4.0 μM pentosidine solution
25 μL of the sample was added to 50 μL of the first reagent, and the resultant was incubated at 37° C. for 5 minutes. Then, 25 μL of the second reagent was added thereto to allow a pentosidine oxidation reaction owing to PenOX2 and a detection reaction for hydrogen peroxide generated through the reaction to proceed at 37° C. for 5 minutes.
In the detection reaction for hydrogen peroxide, simultaneously with consumption of […], DA-67 is oxidized into methylene blue to present the color, and the absorbance (A658) is increased. As an example, the relationship between the elapsed time after the mixture of the sample (4.0 μM pentosidine solution) and the first reagent and the absorbance (A658) is shown in FIG. 3. It was confirmed that A658 increased immediately after the addition of the second reagent containing PenOX2.
Subsequently, an A658 increment (AA) caused by the oxidation of pentosidine was calculated in accordance with the following equation: ΔA=(absorbance 5 min after addition of second reagent)−(absorbance immediately before addition of second reagent×0.75)

B1: PenOX2: protein having the amino acid sequence of SEQ ID NO: 4, pentosidine oxidase from Sarocladium sp., gene g10122; recombinant from Aspergillus sojae (protein, listed as Sarocladium sp.)
chain: MFTPKAWIPLLALSREVFSNPTSASHSISFHGLLGVSSESVHNIHLTYGDAFPHGDFRVVFGDCGMTSEDELHHEVASLSTKMESAPDRLVWLVPKDVRENGCLHAFSEGVLLGRSEPVAFTEPLRKRESLSEIGDSDGLWFSGIRYLQSSNLTSVKAAEAKEKKIGIVGGGISGLMTSLLLTSVGMTNWHIIEATERVGGRIRTKYMNGTSPDDYQYQEMGPMRFPVEVKYNDTNETLPIQDHKMVFQLAEVLNEMNGNDTDLAVKFIPWTQNNPNTPANSRGYRLPDGRIPTAAQIAQNPSILPAAANASDPQDAELGKESLERLSDLTPERMRNISANIFKAHRDAIDRGLFHWSEAAYLRYQLGLDDDTVDFVAASDNYPMFPDWWHAVYFAATKWLTIDKGLDSLSRAFVPHVKDKITYGRKIEAMQWNESTSKISLSWRESPLAAAKSDEYDYAVVAVPFSKVRLWKRPAYSNLLTRAIGKLNYEQACKVALLYETRFWEHQEIPIFGGCGSVDIPGIGGVCYPSYEINSTRPGVILSSYITGTEARSVVALSEEDHVAMVQRAMVEVHGPMADEQWTGIYDRLCWEVDENAAGGWASPTVGQQELFIPAYHKTELNTIFIGEHTSITHGWIFSALESSVRGTTQLLLDLGLVDEAKQIVETWMARWITV
temperature up to which enzyme was stable [1]: about 30 °C | L-arginine oxidation activity of concentrate of purified PenOX2 solution [2]: 24 U/mL | residual activity relative to PenOX2 stored at 4° C. ([3]; pH range 4.0 to 9.0, FIG. 10): ≥ 60% | residual activity relative to PenOX2 stored at 4° C. ([3]; pH range 4.5 to 7.5, FIG. 10): ≥ 90% | pH of highest activity (most suitable optimum pH) ([4]; 37° C., FIG. 7): 7.5 pH | activity relative to highest activity ([4]; at 37° C. to 50° C., pH 7.5): ≥ 80% | activity relative to value in potassium phosphate buffer of around pH 7.5 ([4]; at pH 6.5 to 8.0, 37° C.): ≥ 70% | Km ([4]; pH 7.5, 50 mM potassium phosphate, 37° C., Lineweaver-Burk plot, FIG. 11): 140 µM | specific activity against pentosidine ([4]; pH 7.5, 50 mM, 37° C., protein by Bradford method): 29.1 U/mg | activity value against pentosidine ([4]; potassium phosphate buffer pH 7.5, 50 mM, 37° C.): 7.8 U/mL | temperature of highest activity ([4]; potassium phosphate buffer pH 7.5, 50 mM, FIG. 8): around 50 °C | pentosidine oxidation activity [5]: exhibits the pentosidine oxidation activity
